Data reported in IntAct's records for PubMed 19628817.

B1: Succinate dehydrogenase assembly factor 2, mitochondrial (Homo sapiens), Q9NX18 (parent)
chain: MAVSTVFSTSSLMLALSRHSLLSPLLSVTSFRRFYRGDSPTDSQKDMIEIPLPPWQERTDESIETKRARLLYESRKRGMLENCILLSLFAKEHLQHMTEKQLNLYDRLINEPSNDWDIYYWATEAKPAPEIFENEVMALLRDFAKNKNKEQRLRAPDLEYLFEKPR

Variants of: B1
Settings: with sdha_human SDHA

Variant | effect of a mutation on the interaction
G78R | disrupting interaction strength
